{"source": "patent US20130330358", "key": {"[1]": {"tested_on": "T1, vIRF4^202-216 peptide (vif1)", "T1 sequence": "SVWIPVNEGASTSGM", "assay": "competitive ITC: vIRF4^202-216 titrated into TRAF pre-titrated with p53^355-369 (competitor)"}, "[2]": {"tested_on": "T1, vIRF4^202-216 peptide (vif1)", "assay": "competitive ITC: vIRF4^202-216 titrated into TRAF pre-titrated with MDM2^137-152 (competitor)"}, "[3]": {"tested_on": "T1, vIRF4^202-216 peptide (vif1)", "assay": "competitive ITC: vIRF4^202-216 titrated into TRAF pre-titrated with p53^350-364 (competitor)"}}, "data": [{"substance": "HAUSP TRAF domain (HAUSP^62-205)", "values": [{"measurement": "Kobs (observed association constant)", "setting": "[1]", "result": "3.58e+07", "unit": "M⁻¹"}, {"measurement": "Kobs (observed association constant)", "setting": "[2]", "result": "1.09e+07", "unit": "M⁻¹"}, {"measurement": "Kobs (observed association constant)", "setting": "[3]", "result": "4.42e+07", "unit": "M⁻¹"}]}]}
